Source: US20110151450
Where a chain is given by its changes, count along the chain named.

Columns and labels:
Experiment in all cases: cleavage_in_vitro
[1] = tested on: T1, ApoI-HF T77A/T96A (Arthrobacter protophormiae); settings: NEB4, relative activity 50%
T1 sequence: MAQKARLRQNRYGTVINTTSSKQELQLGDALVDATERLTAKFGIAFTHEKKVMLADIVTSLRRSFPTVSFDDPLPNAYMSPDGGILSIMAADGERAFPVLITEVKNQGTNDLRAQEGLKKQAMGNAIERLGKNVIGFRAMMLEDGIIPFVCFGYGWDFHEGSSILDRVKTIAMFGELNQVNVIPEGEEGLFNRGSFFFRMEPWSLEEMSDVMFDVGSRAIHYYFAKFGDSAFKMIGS

[2] = tested on: T2, ApoI-WT (Arthrobacter protophormiae); settings: NEB4, relative activity 50%
T2 sequence: T1 sequence with A77T, A96T

[3] = biological target: T3, BglII-HF N208A (Bacillus globigii) (UniProt Q45488); settings: NEB4, relative activity 25%
T3 sequence: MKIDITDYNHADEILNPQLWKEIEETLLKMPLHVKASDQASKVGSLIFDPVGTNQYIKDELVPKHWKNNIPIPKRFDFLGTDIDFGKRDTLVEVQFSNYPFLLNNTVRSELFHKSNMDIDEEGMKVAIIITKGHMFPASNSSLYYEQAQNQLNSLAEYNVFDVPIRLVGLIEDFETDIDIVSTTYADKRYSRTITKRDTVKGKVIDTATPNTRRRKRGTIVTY

[4] = tested on: T4, BmtI-HF S50A (Bacillus megaterium); settings: NEB4, relative activity 100%
T4 sequence: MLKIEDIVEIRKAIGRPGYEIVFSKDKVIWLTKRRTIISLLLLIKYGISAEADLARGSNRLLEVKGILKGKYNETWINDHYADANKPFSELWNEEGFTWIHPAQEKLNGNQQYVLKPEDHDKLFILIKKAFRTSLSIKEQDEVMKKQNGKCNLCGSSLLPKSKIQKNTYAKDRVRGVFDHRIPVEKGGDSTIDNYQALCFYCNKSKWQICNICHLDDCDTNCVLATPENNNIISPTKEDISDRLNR

[5] = tested on: T5, PmeI-HF E86A (Pseudomonas mendocina); settings: NEB4, relative activity 100%
T5 sequence: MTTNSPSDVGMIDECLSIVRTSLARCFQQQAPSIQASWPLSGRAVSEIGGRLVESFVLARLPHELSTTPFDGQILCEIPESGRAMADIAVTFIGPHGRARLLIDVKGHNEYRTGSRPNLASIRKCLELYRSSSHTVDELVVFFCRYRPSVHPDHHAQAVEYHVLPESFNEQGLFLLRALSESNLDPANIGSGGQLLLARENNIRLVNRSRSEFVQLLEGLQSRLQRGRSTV

[6] = tested on: T6, PmeI-WT (Pseudomonas mendocina); settings: NEB4, relative activity 25%
T6 sequence: T5 sequence with A86E

[7] = tested on: T7, PvuI-WT (Proteus vulgaris); settings: NEB4, relative activity 12.5%
T7 sequence: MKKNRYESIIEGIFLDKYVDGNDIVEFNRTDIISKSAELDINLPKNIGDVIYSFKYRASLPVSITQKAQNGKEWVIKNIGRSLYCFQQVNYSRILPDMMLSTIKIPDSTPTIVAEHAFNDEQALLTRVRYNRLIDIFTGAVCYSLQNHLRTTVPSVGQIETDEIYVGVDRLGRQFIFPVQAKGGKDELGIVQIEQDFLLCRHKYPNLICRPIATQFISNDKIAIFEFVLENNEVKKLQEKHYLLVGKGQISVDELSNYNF

[8] = biological target: T8, SmaI-HF F60L/S61R (Serratia marcescens) (UniProt P14229); settings: NEB4, relative activity 100%
T8 sequence: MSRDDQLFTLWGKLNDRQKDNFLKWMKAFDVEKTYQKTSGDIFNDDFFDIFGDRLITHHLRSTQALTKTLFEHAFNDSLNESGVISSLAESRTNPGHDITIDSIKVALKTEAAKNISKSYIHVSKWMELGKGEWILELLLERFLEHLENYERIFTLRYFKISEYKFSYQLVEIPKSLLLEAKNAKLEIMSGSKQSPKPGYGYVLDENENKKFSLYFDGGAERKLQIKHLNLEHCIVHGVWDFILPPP

[9] = biological target: T9, SmaI-WT (Serratia marcescens) (UniProt P14229); settings: NEB4, relative activity 100%
T9 sequence: T8 sequence with L60F, R61S

[10] = tested on: T10, SpeI-HF P65A (Sphaerotilus natans); settings: NEB4, relative activity 100%
T10 sequence: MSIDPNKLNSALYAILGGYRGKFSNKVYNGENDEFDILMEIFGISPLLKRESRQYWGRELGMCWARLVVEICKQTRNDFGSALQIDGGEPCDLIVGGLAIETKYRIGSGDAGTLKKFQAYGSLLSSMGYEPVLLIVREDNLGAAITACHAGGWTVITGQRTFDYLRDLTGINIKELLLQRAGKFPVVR

[11] = tested on: T11, SpeI-WT (Sphaerotilus natans); settings: NEB4, relative activity 50%
T11 sequence: T10 sequence with A65P

Substance pXba plasmid has an activity (fidelity index) [1] greater than 2000, an activity (fidelity index) [2] of 32 and an activity (fidelity index) [3] greater than 32000. For the same substance, the activity (fidelity index) [4] was greater than 1e+06, the activity (fidelity index) [5] was greater than 8000 and the activity (fidelity index) [6] was 64. The activity (fidelity index) [7] was 32, the activity (fidelity index) [8] was greater than 256000 and the activity (fidelity index) [9] was 64. For the same substance, the activity (fidelity index) [10] was greater than 8000 and the activity (fidelity index) [11] was 500.
